Measurements: US20220332804A1 (CSL INNOVATION, published 2022)

Key:
Test in all cases: SPR, antibody captured, C2 as analyte;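 note: biacore SPR at 37 °C, anti-C2 mAbs captured via goat anti-human IgG on CM5 chips, double-referenced sensorgrams fit to a 1:1 kinetic or steady-state model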
human C2 N467A = target: T1, human C2 N467A (human, UniProt P06681 21-752)
T1 sequence: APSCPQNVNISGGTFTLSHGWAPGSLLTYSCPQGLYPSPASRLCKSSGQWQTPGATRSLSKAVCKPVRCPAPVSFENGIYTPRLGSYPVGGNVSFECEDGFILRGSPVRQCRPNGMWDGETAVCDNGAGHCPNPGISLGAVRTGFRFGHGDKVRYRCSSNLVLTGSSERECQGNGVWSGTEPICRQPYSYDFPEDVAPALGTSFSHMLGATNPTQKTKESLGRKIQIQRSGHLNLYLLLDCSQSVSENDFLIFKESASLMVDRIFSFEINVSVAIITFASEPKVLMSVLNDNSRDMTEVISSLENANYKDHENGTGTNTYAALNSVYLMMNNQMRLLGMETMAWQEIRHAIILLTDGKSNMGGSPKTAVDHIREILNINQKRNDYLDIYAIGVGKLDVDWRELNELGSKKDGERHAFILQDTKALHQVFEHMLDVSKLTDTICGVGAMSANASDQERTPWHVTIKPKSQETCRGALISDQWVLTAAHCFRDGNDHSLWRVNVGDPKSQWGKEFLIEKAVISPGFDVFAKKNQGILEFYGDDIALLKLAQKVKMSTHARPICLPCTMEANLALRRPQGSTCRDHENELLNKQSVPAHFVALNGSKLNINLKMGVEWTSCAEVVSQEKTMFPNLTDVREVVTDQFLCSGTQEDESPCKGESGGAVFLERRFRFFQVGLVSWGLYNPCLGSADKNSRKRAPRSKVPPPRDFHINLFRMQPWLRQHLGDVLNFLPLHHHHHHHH

human C2 H331A = target: T2, human C2 H331A (human, UniProt P06681 21-752)
T2 sequence: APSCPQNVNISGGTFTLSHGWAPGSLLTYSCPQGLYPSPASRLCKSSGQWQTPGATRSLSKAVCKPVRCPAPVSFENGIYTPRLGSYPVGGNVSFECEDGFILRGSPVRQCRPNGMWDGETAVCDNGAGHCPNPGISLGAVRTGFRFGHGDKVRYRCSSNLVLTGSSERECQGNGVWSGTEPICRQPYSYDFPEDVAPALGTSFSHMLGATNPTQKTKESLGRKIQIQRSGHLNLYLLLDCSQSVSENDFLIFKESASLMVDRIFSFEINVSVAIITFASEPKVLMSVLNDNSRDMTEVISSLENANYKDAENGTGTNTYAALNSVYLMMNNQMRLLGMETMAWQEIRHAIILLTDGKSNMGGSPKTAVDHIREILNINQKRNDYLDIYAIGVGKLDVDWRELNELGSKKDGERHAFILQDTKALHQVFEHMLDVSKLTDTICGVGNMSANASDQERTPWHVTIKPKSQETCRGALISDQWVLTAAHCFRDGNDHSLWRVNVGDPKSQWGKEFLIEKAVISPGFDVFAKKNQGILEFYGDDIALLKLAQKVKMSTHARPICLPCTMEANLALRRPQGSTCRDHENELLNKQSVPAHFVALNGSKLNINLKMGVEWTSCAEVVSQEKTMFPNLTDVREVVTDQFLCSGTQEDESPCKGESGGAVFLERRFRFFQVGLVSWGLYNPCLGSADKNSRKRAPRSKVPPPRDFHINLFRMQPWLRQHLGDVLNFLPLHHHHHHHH

human C2 K721A = target: T3, human C2 K721A (human, UniProt P06681 21-752)
T3 sequence: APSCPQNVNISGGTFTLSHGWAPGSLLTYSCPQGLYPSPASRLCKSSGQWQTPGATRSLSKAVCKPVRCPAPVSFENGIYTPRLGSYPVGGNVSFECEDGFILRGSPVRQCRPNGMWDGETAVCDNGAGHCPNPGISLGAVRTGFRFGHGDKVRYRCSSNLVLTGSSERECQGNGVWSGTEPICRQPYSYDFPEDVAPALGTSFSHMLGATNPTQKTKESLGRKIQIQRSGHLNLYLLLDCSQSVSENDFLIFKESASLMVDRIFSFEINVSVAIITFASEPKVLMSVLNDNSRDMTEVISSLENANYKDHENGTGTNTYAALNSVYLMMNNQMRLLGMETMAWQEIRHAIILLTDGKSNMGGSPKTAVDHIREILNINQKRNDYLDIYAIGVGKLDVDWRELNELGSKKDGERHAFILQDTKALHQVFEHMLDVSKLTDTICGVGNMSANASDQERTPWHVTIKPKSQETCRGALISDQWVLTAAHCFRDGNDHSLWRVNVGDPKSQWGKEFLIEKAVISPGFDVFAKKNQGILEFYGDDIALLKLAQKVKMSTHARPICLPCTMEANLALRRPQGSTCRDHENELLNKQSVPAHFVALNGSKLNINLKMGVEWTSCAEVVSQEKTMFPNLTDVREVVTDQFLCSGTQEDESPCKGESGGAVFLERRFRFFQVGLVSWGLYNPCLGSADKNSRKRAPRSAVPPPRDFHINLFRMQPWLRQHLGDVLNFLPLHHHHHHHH

human C2 D511A = target: T4, human C2 D511A (human, UniProt P06681 21-752)
T4 sequence: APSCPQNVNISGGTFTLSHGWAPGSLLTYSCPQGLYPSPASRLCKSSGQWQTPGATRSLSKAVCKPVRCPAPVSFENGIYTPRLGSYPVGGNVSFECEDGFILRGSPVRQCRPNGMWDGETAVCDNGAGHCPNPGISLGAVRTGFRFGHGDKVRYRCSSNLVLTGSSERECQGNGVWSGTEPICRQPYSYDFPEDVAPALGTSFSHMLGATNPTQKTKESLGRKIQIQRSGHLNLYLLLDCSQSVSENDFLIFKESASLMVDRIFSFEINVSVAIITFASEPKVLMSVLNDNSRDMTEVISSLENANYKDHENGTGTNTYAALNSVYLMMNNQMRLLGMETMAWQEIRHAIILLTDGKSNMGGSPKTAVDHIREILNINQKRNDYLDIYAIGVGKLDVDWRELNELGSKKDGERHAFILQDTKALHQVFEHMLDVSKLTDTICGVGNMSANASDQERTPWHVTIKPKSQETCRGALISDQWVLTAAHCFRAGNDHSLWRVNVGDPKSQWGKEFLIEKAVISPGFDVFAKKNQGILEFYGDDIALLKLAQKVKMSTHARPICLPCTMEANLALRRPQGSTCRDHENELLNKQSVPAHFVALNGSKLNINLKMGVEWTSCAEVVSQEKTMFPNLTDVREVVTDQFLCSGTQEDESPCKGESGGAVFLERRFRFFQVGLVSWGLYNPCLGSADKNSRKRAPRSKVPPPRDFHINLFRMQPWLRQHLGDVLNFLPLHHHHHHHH

B1: RF16-226 (antibody, human IgG4 S228P, lambda)
heavy: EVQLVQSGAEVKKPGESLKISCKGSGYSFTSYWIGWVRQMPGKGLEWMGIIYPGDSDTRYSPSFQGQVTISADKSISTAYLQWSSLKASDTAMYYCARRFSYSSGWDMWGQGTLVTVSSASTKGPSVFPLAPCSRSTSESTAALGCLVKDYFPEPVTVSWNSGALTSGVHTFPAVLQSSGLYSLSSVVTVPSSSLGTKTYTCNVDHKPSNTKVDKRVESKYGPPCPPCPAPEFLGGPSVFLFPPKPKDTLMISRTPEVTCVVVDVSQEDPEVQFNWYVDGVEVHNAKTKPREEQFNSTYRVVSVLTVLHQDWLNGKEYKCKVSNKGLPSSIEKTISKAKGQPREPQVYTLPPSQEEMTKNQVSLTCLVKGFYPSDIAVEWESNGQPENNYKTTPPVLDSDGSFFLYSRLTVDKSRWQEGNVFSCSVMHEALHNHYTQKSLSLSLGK
light: SYELTQPPSVSVSPGQTARITCSGDALTSKYVAWYQQKSGLAPLLVIYEDTRRPSGIPAKFSGSSSGSVATLTISGAHGDDEADYYCYSTDASGHQRVFGGGTKLTVLSQPKAAPSVTLFPPSSEELQANKATLVCLISDFYPGAVTVAWKADGSPVKAGVETTKPSKQSNNKYAASSYLSLTPEQWKSHRSYSCQVTHEGSTVEKTVAPTECS
notes: pH-dependent anti-C2 antibody from a phage display library; also called WT
Human C2 N467A
  Kd: 19.7 nM
Human C2 H331A
  binding result: no binding
Human C2 K721A
  Kd: 99.9 nM
Human C2 D511A
  Kd: 31.2 nM
